In US20130046257A1, “METHODS OF USING AGENTS THAT MODULATE CLAUDIN EXPRESSION” (priority 2010, published 2013):
Entries after “also recorded” stand apart in the source; their conditions may differ.

Experiments:
claudin-1 = experiment: Western blot of claudin-1 in siRNA transfected PHK; format: cell-based, human; conditions: 48 h
Protocol: (§1) PHK were lysed on ice in RIPA lysis buffer (20 mM Tris, 50 mM NaCl, 2 mM EDTA, 2 mM EGTA, 1% sodium deoxycholate, 1% TX-100, and 2% SDS, pH 7.4), with 1:100 Protease Inhibitor Cocktail (Sigma), 1:100 Phosphatase Inhibitor Cocktail ([…] for 30 min at 4° C. The samples were heated at 95° C. for 10 min and then centrifuged at 14,000 rpm for 15 min. Forty μg of protein, determined by BCA (Pierce) in NuPage LDS Sample Buffer (Invitrogen) was applied to 4-12% NuPage Bis-Tris gels (Invitrogen). Electrophoresis was performed under reducing conditions with MES SDS Buffer (Invitrogen). Membranes were incubated in blotting solution (5% non-fat dry milk in PBS+0.05% Tween 20) at RT for 1 h and then incubated with primary antibodies; claudin-1 (JAY.8; Zymed), occludin (OC/3F10; Zymed) and GAPDH (FL-355; Santa Cruz). An HRP-linked secondary antibody (GE Healthcare) was used with ECL (GE Healthcare) to visualize bands by autoradiography with Kodak BioMax MR film. The pixel intensity of each band was estimated with Image J.
(§2) PHK were plated on glass coverslips at 2-3×10^5 cells/well in a 6-well plate or at 2-3×10^4 cells/filter in Transwell insert (Costar; PET membrane, 0.4 μm pore size, 6.5 mm insert) in Keratinocyte-SFM without antibiotics. […]

[1] = system: primary human keratinocytes (PHK); experiment: Trans Epithelial Electric Resistance (TEER) of PHK; format: cell-based
Protocol: Human keratinocytes were isolated from neonatal foreskin. Poumay et al., “Basal Detachment of the Epidermis Using Dispase: Tissue Spatial Organization and Fate of Integrin Alpha 6 Beta 4 and Hemidesmosomes,” J. Invest. Dermatol. 102:111-7 (1994), which is hereby incorporated by reference in its entirety. PHK were cultured in Keratinocyte-SFM (Invitrogen/Gibco) with 1% Pen/Strep, 0.2% Amphotericin B (Invitrogen/Gibco). To differentiate PHK, cells were grown in DMEM (Invitrogen/Gibco) with 10% heat-inactivated fetal bovine serum (Invitrogen/Gibco) and 1% Pen/Strep, 0.2% Amphotericin B (Invitrogen/Gibco). For TJ modulation experiments, the following cytokines were added alone or in combination to the differentiation media; human IL-4 (50 ng/ml; R&D system) and IL-13 (50 ng/ml; R&D system).
PHK were plated at a subconfluent density of 2.5−3×10^4 cells/filter in Transwell insert and cultured in Keratinocyte-SFM media until confluent. TEER was measured using an EVOMX voltohmmeter (World Precision Instruments, Sarasota, Fla.). The resistance of cell-free filters was subtracted from each experimental value.
PHK were plated on glass coverslips at 2-3×10^5 cells/well in a 6-well plate or at 2-3×10^4 cells/filter in Transwell insert (Costar; PET membrane, 0.4 μm pore size, 6.5 mm insert) in Keratinocyte-SFM without antibiotics. The next day after plating, cells were transfected with claudin-1 specific or control (scrambled) siRNAs (Santa Cruz) using Lipofectamine™ 2000 transfection Reagent (Invitrogen). TEER and permeability experiments were conducted 48 hours after PHK were switched to differentiation media.
TEER was measured in PHK as described above. PHK were stimulated with S. aureus-derived peptidoglycan (PGN, 0.2-20 μg/ml, n=3-7) (FIG. 19A), Malp-2 (10-1000 ng/ml, n=3) (FIG. 19B), and Pam3CSK4 a TLR1/2 ligand (0.01-20 μg/ml, n=3-6) (FIG. 19C). Data are presented by analyzing the area under the TEER curve and normalized to the mean values for the control group (media alone)*p<0.05; **p<0.01.

connexin-26 (GJB2) = experiment: qPCR of connexin-26 in claudin-1 siRNA transfected PHK; format: cell-based, human; conditions: n=6
Protocol: (§3) QPCR was performed using the iScript™ cDNA Synthesis kit and iQ™ SYBER Green Supermix assay system (Bio-Rad Laboratories). All PCR amplifications were carried out in triplicate on an iQ5 Multicolor real-time PCR detection system (Bio-Rad). Primers were designed and synthesized by Integrated
(§4) DNA Technologies (Table 1). Relative gene expression was calculated by using the 2^−ΔΔCt method. Livak and Schmittgen, “Analysis of Relative Gene Expression Data Using Real-Time Quantitative PCR and the 2(-Delta Delta C(T)) Method,” Methods 25:402-8 (2001), which is hereby incorporated by reference in its entirety. The normalized Ct value of each sample was calculated using GAPDH as an endogenous control gene.

occludin = experiment: Western blot of occludin in siRNA transfected PHK; format: cell-based, human; conditions: 48 h
Protocol: as §1, §2

[2] = system: occludin, ZO-1, nectin-1, E-cadherin, filaggrin mRNA; experiment: qPCR of other barrier genes in claudin-1 siRNA transfected PHK; format: cell-based, human; conditions: siRNA 100 nM
Protocol: as §3, §4
Reverse transcription was performed from total RNA using iScript™ cDNA Synthesis kit (Bio-Rad) according to the manufacturer's protocol. qPCR was performed using the iQ™ SYBER Green Supermix assay system from Bio-Rad Laboratories. All PCR amplifications were carried out in triplicate on an iQ5 Multicolor real-time PCR detection system (Bio-Rad). Primers were designed and synthesized by Integrated DNA Technologies. Primers used in the study: GAPDH (forward: SEQ ID NO: 16 and reverse: SEQ ID NO: 17); Cldn-1 (forward: (SEQ ID NO:18 and reverse: SEQ ID NO:19); PVRL1 (Nectin1; forward: SEQ ID NO:28 and reverse SEQ ID NO:29).
Relative gene expression was calculated by using the […] method, in which Ct indicates cycle threshold, the fractional cycle number where the fluorescent signal reaches detection threshold. Livak and Schmittgen, “Analysis of Relative Gene Expression Data Using Real-Time Quantitative PCR and the 2(-Delta Delta C(T)) Method,” Methods 25:402-8 (2001), which is hereby incorporated by reference in its entirety. The normalized Ct value of each sample was calculated using GAPDH as an endogenous control gene.

claudin-1, sequence (O95832 whole entry): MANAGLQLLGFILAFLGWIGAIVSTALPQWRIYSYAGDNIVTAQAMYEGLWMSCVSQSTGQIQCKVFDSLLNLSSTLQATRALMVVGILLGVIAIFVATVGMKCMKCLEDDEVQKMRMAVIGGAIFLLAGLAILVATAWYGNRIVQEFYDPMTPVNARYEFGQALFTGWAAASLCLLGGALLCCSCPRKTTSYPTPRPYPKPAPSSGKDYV

B1: CLDN1 siRNA: claudin-1 siRNA (h), Santa Cruz; a pool of 3 separate strands, SEQ ID NO: 10-15 (nucleic acid)
chain 1: UACAUAGGCAUAGUUCAUGNN
chain 2: CAUGAACUAUGCCUAUGUANN
chain 3: AACGUAUGCAGUUAAUUCCNN
chain 4: GGAAUUAACUGCAUACGUUNN
chain 5: UGAAGAUCUAUGUAUGUGGNN
chain 6: CCACAUACAUAGAUCUUCANN
modifications: chemistry not given here
claudin-1 protein by Western blot (claudin-1): dose-dependent reduction | decrease in claudin-1 protein expression compared to scrambled siRNA-transfected cells (claudin-1; Western blot, dose-dependent): ≤ 60% | TEER (FIG. 12C legend) ([1]; CLDN1 siRNA, PHK, n=4): 80.6±6.4 | TEER ([1]; siRNA 100 nM, PHK 48 hours after switch to differentiation media, n=4): 80.6±6.4 ohms×cm^2 | drop in TEER ([1]; siRNA 100 nM, vs scrambled siRNA-transfected PHK): ≥ 50% | connexin-26 (GJB2) expression, fold over control (connexin-26 (GJB2)): 1.7±0.8 fold | occludin protein by Western blot (occludin): No change | effect on nectin-1 mRNA expression [2]: not affected; also recorded: no effect | effect on mRNA expression of occludin, ZO-1, nectin-1, E-cadherin or filaggrin ([2]; n=5/group): no effect | nectin-1 (PVRL1) mRNA relative expression ([2]; n=5/group): 0.99±0.16
